Test results from paper PMC12169553.
One block for each molecule: values may come before it.

Tests used:
Assay in all cases: SEC; Superdex 200 increase column, 40 mM potassium phosphate, 300 mM NaCl, pH 6.5, 1 mL/min, detection at 220 nm; drug products reconstituted in water for injection
[1] = target: L-Aspase (E. coli L-asparaginase) (E. coli) (UniProt P00805)
[2] = target: T1, Spectrila (recombinant E. coli L-asparaginase type II) (E. coli), P00805; conditions: remark: other sources report otherwise
T1 chain: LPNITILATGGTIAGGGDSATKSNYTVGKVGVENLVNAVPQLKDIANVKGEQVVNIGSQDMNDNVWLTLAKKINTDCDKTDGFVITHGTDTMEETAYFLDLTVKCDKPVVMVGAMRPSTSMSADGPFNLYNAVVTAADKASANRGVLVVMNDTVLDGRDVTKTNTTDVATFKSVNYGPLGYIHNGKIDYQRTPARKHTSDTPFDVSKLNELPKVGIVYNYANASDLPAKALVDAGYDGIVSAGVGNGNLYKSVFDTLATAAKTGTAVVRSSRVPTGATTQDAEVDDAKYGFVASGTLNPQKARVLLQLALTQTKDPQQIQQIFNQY

[3] = target: T2, Celginase (E. coli L-asparaginase) (E. coli), P00805; conditions: remark: other sources report otherwise
T2 chain: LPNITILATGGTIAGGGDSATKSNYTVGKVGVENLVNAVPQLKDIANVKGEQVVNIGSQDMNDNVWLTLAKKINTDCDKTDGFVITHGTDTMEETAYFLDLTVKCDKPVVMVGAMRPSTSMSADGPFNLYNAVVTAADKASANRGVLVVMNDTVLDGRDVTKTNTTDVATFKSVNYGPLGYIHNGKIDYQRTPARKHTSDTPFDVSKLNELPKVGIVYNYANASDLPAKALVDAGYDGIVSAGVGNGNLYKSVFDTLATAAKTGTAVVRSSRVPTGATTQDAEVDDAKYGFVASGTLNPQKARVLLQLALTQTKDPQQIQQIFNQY

[4] = target: T3, Bionase (E. coli L-asparaginase) (E. coli), P00805; conditions: remark: other sources report otherwise
T3 chain: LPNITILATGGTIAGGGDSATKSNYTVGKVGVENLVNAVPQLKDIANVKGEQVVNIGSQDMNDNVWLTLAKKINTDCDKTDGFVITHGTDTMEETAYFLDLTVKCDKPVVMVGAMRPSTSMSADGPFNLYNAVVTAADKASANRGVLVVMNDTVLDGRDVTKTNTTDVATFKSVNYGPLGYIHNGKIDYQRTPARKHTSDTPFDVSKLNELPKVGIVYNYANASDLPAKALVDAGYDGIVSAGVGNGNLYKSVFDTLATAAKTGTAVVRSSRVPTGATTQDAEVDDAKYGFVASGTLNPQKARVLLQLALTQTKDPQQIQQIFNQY

- stoichiometry N [1]: 4
Molecule: L-Aspase (E. coli L-asparaginase) (from UniProt P00805 23-348) (enzyme)

- stoichiometry N [2]: 4
B1: Spectrila (recombinant E. coli L-asparaginase type II), P00805 23-348 (enzyme)
chain: LPNITILATGGTIAGGGDSATKSNYTVGKVGVENLVNAVPQLKDIANVKGEQVVNIGSQDMNDNVWLTLAKKINTDCDKTDGFVITHGTDTMEETAYFLDLTVKCDKPVVMVGAMRPSTSMSADGPFNLYNAVVTAADKASANRGVLVVMNDTVLDGRDVTKTNTTDVATFKSVNYGPLGYIHNGKIDYQRTPARKHTSDTPFDVSKLNELPKVGIVYNYANASDLPAKALVDAGYDGIVSAGVGNGNLYKSVFDTLATAAKTGTAVVRSSRVPTGATTQDAEVDDAKYGFVASGTLNPQKARVLLQLALTQTKDPQQIQQIFNQY

- stoichiometry N [3]: 4
B2: Celginase (E. coli L-asparaginase), P00805 23-348 (enzyme)
chain: LPNITILATGGTIAGGGDSATKSNYTVGKVGVENLVNAVPQLKDIANVKGEQVVNIGSQDMNDNVWLTLAKKINTDCDKTDGFVITHGTDTMEETAYFLDLTVKCDKPVVMVGAMRPSTSMSADGPFNLYNAVVTAADKASANRGVLVVMNDTVLDGRDVTKTNTTDVATFKSVNYGPLGYIHNGKIDYQRTPARKHTSDTPFDVSKLNELPKVGIVYNYANASDLPAKALVDAGYDGIVSAGVGNGNLYKSVFDTLATAAKTGTAVVRSSRVPTGATTQDAEVDDAKYGFVASGTLNPQKARVLLQLALTQTKDPQQIQQIFNQY

- stoichiometry N [4]: 4
B3: Bionase (E. coli L-asparaginase), P00805 23-348 (enzyme)
chain: LPNITILATGGTIAGGGDSATKSNYTVGKVGVENLVNAVPQLKDIANVKGEQVVNIGSQDMNDNVWLTLAKKINTDCDKTDGFVITHGTDTMEETAYFLDLTVKCDKPVVMVGAMRPSTSMSADGPFNLYNAVVTAADKASANRGVLVVMNDTVLDGRDVTKTNTTDVATFKSVNYGPLGYIHNGKIDYQRTPARKHTSDTPFDVSKLNELPKVGIVYNYANASDLPAKALVDAGYDGIVSAGVGNGNLYKSVFDTLATAAKTGTAVVRSSRVPTGATTQDAEVDDAKYGFVASGTLNPQKARVLLQLALTQTKDPQQIQQIFNQY
